Measured values taken from the DeepSol protein solubility set.

Assay: soluble on expression in E. coli; label from the status in PepcDB or PDB records

Soluble on expression in E. coli, not soluble:
MKKISEQKRKHLENLVDDQGIIGALAIDQRGALKRMMGKYKEVTAQEISDFKVLVSRCLTPETSAILLDPEYGLAAAENRAQTSGLLLAYEKTGYDASTPGRLPDSLDVWSVKRLKEAGADACKFLLYYDVDESEAINERKKAYIERIGSECLAEEIPFFLEIVSYDANNSDSASKEYAKVKPHKVIEAMKEFSKDRYNVDVLKVEVPVNMNFVEGFGTESLYSQDEAQAFFNMQSEATQLPFIFLSAGVSATMFQETLKFAKKAGSSFNGVLCGRATWADGVLPFVQQGAEAAVAWLETTGKTNVEELNQVLRESAVSVFEKIQ
MAHHHHHHMHRGPGKRQTAPKEAAQYQFIKKWDLQMRETWDELEPFKGLPKPKVQFGNEAAEVIWPYALLLENVIKVHPYTKSIYVYYSQRQSTPLGELAARVAKRVSQAYLIPITFHNSHVYVEAEMLLEYSETPWVVVHCLDGTHKLIPVKPQAGQTVKEGAEEVLNGIVSACNEIGSAVKNPKEVMRLLSERPLQNQYVRVNYQWYGDTPEERMSHLVKWDYEPEEVVPQLRNRTQHVLDWMNYDGNLPTHNSVRVNIHREAARMRKPNVSAGPKTFFNSSGSRANARTARFDNSRSSQS
MGSDKIHHHHHHMGMNQISQDQIGQARILVVGDMMLDRYWFGDVERISPEAPVPVVQIKRSDERLGGAANVARNSAALGAQVGMLGVVGDDEPGRTIESLLSACKVQPYLHRDASVNTTIKLRVLAHQQQLLRVDFENPPTHEVLLSVLEGFQELVKQYEVLVLSDYGKGGLTHVGRMVEAGRAAGRMVLVDPKGDDYSRYRGATLITPNRAEIRRVVGAWKSEQDLTARAQNLRRDLQLEALLLTRSEEGMTLYTEAEVLHVSAQAREVYDVSGAGDTVIATLATMLAAGVSLKQAVQFANRAGGIVVGKLGTAVVSYPELFGAAG
MMDFEDFGNPLAGKPLSQADKAAAVLLAMGKGVAGKLLKFFTQHELQMIISSAQTLRVIPPDELAQIVAEFEDLFTEGTGLMDNAKAIESILEEGLTPEEVDSLLGRRAAFQAYEASIWDRLQEAEPEFVGKFLLREHPQTIAYILSMLPSSFGAKVLLTIPEEQRADIMNRTVNMKEVSPTAAQIIEKRVVNLINEIEAERNAGGSTKVADLMNELDKPQVDTLLSSLETLSKEAANKVKPKIFLFDDLMFMPQRSRVLLLNDVSADVLTMALRGATVEIKECVLSSISPRQRRMIESDLAVPQASLNTREVAIARRAVAQEAIRLANSGQIQLKDVAAEEQSAAA
MGSDKIHHHHHHMARLAVEPLEALARYQGEPALAAMRREFLPAVTDPVWRGLVEEFLTLDEPLTPYAHQCRRVWSFAASPGSGAHHAHIGGLALHVLQDLRNARALAEAHEARGLALDRGLLFAAIMLHDCLKRFVYDFDDDYALVKAEDPFIARHEDHHSWMLRELVARGVDRTLVLAVAAMHGLDDVSLASGVRPLAVVNHYLEIGLTGLEMQPEDVRAEHSIGFLSDSDWPWSGRAQQRAREVAAALSPRFEVTTGYMNLYLGSRFSFEHIDSLLRTKGHDGTVDHLSTLLEKQG
MSLSGLHQADLEMVAAAYAKSNATIVTYGMGITQHNEGTANVRLICDLLMLRGNLGKPGAGICPLRGHSNVQGNRTVGITEKPSPAFLDKLQQTFGFTPPAHHGHDAVQAMQAMIAGSAKALLCLGGNFAVALPDPGQCFPAMGKLDLSVHIATKLNRSHLLVARETFLFPCLGRTELDMQDGLRQAITVEDSMSMVHASAGKLAPASEFLLSEPAIVAGMARATLPGSRVPWLELVADYDKIRDLIEQTVPGFDDYNARIRVPGGFRMPLAAAERQWLTPSGKAEFFVFPGLHEDKEVDGADVLRLITLRSHDQYNTTIYALDDRYRGVFGRRDVLFISPADLAARGLAHGDLVDIETVIGGRRLRYEKITAIEYKIANGTVGAYYPEANRLVPLDYLDVDSGTPSYKSVPVRVLRSSPAEGHHHHHH
MSLSIKMRLGKEFLIDDLKRIEAMRNHLADNIMLMADANEAWRIDQAVIAFKEIEKFNLVWLEEPIKPDDFKGYSYLRSLGKIPIAAGENLHNLAEFNQLIDVNGVDFLEPDLTTCGGITPFMKVAKLAEVNNLPVCSHGVHELHVHLLASCPNASYLEFHAWRIDEFIDSPLKVLNGYTEAPDLPGHGINFDFEKVEKYNVGEGHHHHHH
MAIIKRSAATDNPNIEILSTPEQIDVLSAEALMEALQGDDLEQILRAIHQLEAADSVEFQQHQAALFTLLDRDTEQNPCSDAVFSLLAIRNNDEITTRLIPLLDSEAPYLRNQAIEILQHSPQQLERHIQDLLNHQDPDVRIFAIDIIGLLPHQSVPEWLMQVLQHEEHINVIGTAIDRVAQLSDPNFSTILGEVKQRFSHVPYLVFACDVAIKRLNT

Soluble on expression in E. coli, soluble:
MSLKVFLKKGKEKKVKHFYPWVFRDEVEKIEGEGIVAELYDSEGNFLALGTYSPYSRIAFRVLSYEREEVNEEFFKRRLRESELLRRDIPSNAYRLAFSESDLLSGLIIDRYGDAFVIQVRSYPMEILKEKVLKTLVEEFNPAFVYERSDFKGRREEGLKEFKGLLYGKLENPLIIEEREFKFLVDVVEGLKTGFYLDQRDNREYVRNLVKEGDRVLDLFCYSGGFSVYCANRGAKVVGVDINKRAVELARENAKLNSVKADFVLGNAFDFIQESKEEWDLIIADPPAIAKTKKEKESILWAIWKLAYYSFQKLKKGGSLFICSCTYQISSEEMIRQVRLASTDVKRRIIIKSLNLQPIDHPYLPTFPESLYLKCLHAIVIDEGHHHHHH
MEKERETLQAWKERVGQELDRVMAFWLEHSHDREHGGFFTCLGRDGRVYDDLKYVWLQGRQVWMYCRLYRKLERFHRPELLDAAKAGGEFLLRHARVAPPEKKCAFVLTRDGRPVKVQRSIFSECFYTMAMNELWRVTAEARYQSEAVDMMDQIVHWVREDPSGLGRPQLPGAVASESMAVPMMLLCLVEQLGEEDEELAGRYAQLGHWCARRILQHVQRDGQAVLENVSEDGEELSGCLGRHQNPGHALEAGWFLLRHSSRSGDAKLRAHVIDTFLLLPFRSGWDADHGGLFYFQDADGLCPTQLEWAMKLWWPHSEAMIAFLMGYSESGDPALLRLFYQVAEYTFRQFRDPEYGEWFGYLNREGKVALTIKGGPFKGCFHVPRCLAMCEEMLSALLSRLA
MEKKKVAEWLAQGSIAVPKLLLGHYKQLGLGEGELVLLLHMQSFFEEGVLFPTPAELAERMTVSAAECMEMVRRLLQKGMIAIEEHTDEQGIRNEKYTLEPLWEKLVHHLYTQAAQQGELGRQEEEES
MPTNQDLQLAAHLRSQVTTLTRRLRREAQADPVQFSQLVVLGAIDRLGGDVTPSELAAAERMRSSNLAALLRELERGGLIVRHADPQDGRRTRVSLSSEGRRNLYGNRAKREEWLVRAMHACLDESERALLAAAGPLLTRLAQFEEP
MKLDPQTLAHITSATLGNYNRVADDFREGTRDHDVSQNIDALLRHIEGSAPWQILDFGCGPGRDLKTFTAMGHVAVGLDGSERFAEMARAETGCEVFQQNFLELDLPQGRFDGIFANAVLFHIPRQELPRVLRELYATLKPGGVLFSSNPRGQNQEGWQGERYGAYHDLETWRQLLTDAGFAELEHYYRPLEHHHHHH
QVQLQQPGTELVKPGASVKLSCKASGYTFTGFWIHWVKQRPGQGLEWIGHINPGNGGTNYNEKFKRMATLTVDKSSSTAYMQLSSLTSEDSAVYYCARSYSNYVRAMDYWGQGTSVTVSSAKTTAPSVYPLVPVCGGTTGSSVTLGCLVKGYFPEPVTLTWNSGSLSSGVHTFPALLQSGLYTLSSSVTVTSNTWPSQTITCNVAHPASSTKVDKKIEP
MSLTEISRFDAYPPTLTVNPIVPADAPATEHLVWTIAQAAEERKAGDLVILKVTDVSYLADYFVICTGFSRTQVRAIADNIEKQVELVHGQLPTHTEGNSESIWVLQDFGDVLVHTFMPEEREFYKLEAFWGHAQEQTLADIATAIGVAYNAPTSPEGHHHHHH
